Consider four substances from publication PMC8622166.

For assay [1], the target named is non-isoprenylated RAC1 full-length (RAC1^FL) (human) (UniProt P63000). The assay is described as follows: stopped-flow fluorimetry; kon from kobs against increasing GDI concentrations mixed with 0.2 µM mdGDP-bound RHO GTPase; koff by displacement with excess unlabeled GDP-bound RHO protein; Kd = koff/kon; 25 °C, 30 mM Tris/HCl pH 7.5, 10 mM K2HPO4/KH2PO4 pH 7.5, 5 mM MgCl2, 3 mM DTT.

The target of assay [2] is geranylgeranylated RAC1 (RAC1^GG) (human) (UniProt P63000). Put plainly: stopped-flow fluorimetry; association (kobs) at one concentration: 2 µM GDI mixed with 0.2 µM mdGDP-bound RHO GTPase; 25 °C, 30 mM Tris/HCl pH 7.5, 10 mM K2HPO4/KH2PO4 pH 7.5, 5 mM MgCl2, 3 mM DTT.
In assay [3] the target is non-isoprenylated RAC1 full-length (RAC1^FL) (human) (UniProt P63000). Described as above.
The target is the same in assay [4]. Put plainly: fluorescence polarisation; increasing GDI1 (variants) titrated to 0.2 µM mdGDP-bound RHO protein, 200 µL; 25 °C, 30 mM Tris/HCl pH 7.5, 10 mM K2HPO4/KH2PO4 pH 7.5, 5 mM MgCl2, 3 mM DTT; quadratic binding equation. (Fluorescence polarisation rises when a labelled molecule tumbles more slowly, as on binding a larger partner.)
In a further assay the target is RHOA (Homo sapiens) (UniProt P61586). Conditions: cited from earlier work.
Another assay addresses CDC42 (Homo sapiens) (UniProt P60953). The settings on record: cited from earlier work.
The target of the next assay is RAC1 (Homo sapiens) (UniProt P63000). Conditions: cited from earlier work.
Assay [5] has as its target geranylgeranylated RAC1 (RAC1^GG) (human) (UniProt P63000). The assay is described as follows: not stated.
The target is the same in assay [6]. The assay is described as follows: stopped-flow fluorimetry; kon from kobs against increasing GDI concentrations mixed with 0.2 µM mdGDP-bound RHO GTPase; koff by displacement with excess unlabeled GDP-bound RHO protein; Kd = koff/kon; 25 °C, 30 mM Tris/HCl pH 7.5, 10 mM K2HPO4/KH2PO4 pH 7.5, 5 mM MgCl2, 3 mM DTT.
Assay [7] has as its target RAC1, RAC3, RHOG and RHOA. The assay is described as above.
The target in assay [8] is RAC1^ΔC10 (C-terminal truncated variant lacking HVR-CAAX) (human) (UniProt P63000). Put plainly: fluorescence polarisation; increasing GDI1 (variants) titrated to 0.2 µM mdGDP-bound RHO protein, 200 µL; 25 °C, 30 mM Tris/HCl pH 7.5, 10 mM K2HPO4/KH2PO4 pH 7.5, 5 mM MgCl2, 3 mM DTT; quadratic binding equation.

RHOA (Homo sapiens), sequence (P61586 1-190): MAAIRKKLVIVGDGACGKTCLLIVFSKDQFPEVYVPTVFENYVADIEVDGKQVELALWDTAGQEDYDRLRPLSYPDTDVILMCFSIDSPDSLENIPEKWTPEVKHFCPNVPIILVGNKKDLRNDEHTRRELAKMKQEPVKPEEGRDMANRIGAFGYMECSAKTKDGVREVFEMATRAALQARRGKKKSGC
CDC42 (Homo sapiens), sequence (P60953 1-188): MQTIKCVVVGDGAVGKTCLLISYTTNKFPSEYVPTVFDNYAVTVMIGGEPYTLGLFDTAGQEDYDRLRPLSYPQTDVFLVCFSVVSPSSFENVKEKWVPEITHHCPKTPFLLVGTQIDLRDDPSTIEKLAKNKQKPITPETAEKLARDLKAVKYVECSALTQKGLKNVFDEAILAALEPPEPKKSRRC

In [1], “GDI1^ΔN15 (from UniProt P52565 16-204) (domain or fragment)” displayed a fold difference in kon against GDI1 wt above 100 fold. Also, the fold slower association rate than GDI1^WT in [2] and in assay [3] was below 24 fold in each case. Moreover, in assay [4], the fold change of Kd against GDI1^WT turned out to be 440 fold.

Regarding “GDI1^ΔC6 (from UniProt P52565 1-198) (domain or fragment)”, the fold difference in kon against GDI1 wt in assay [1] was above 100 fold. In addition, the fold slower association rate than GDI1^WT in [2] and in assay [3] was below 24 fold each time. The same substance returned a fold change of Kd against GDI1^WT in assay [4] of 140 fold.

On to GDI1 (from UniProt P52565), for which the Kd – broadly, the equilibrium constant for the complex coming apart – with RHOA (Homo sapiens) was 0.005 nM; with CDC42 (Homo sapiens) it was 1.6 nM; in the assay with RAC1 (Homo sapiens) it was 0.4 nM.

For the substance “GDI1 (RHOGDI1), wild type (from UniProt P52565 1-204) (natural protein)”, in assay [5], the Kd came out at 180 nM and the fold lower Kd than for RAC1^FL fell in the range of 2.5 to 4.6 fold. In assay [6], this substance came in with a fold difference of koff between RAC1^GG and RAC1^FL of 3 fold; a fold higher affinity than for RAC1^FL (Kd from koff/kon) of 7 fold. The substance further gave a Kd in assay [7] of 900 to 3200 nM. In [8], this substance had a fold lower affinity than for RAC1 of 26 fold.
